According to the supplement of paper PMC10567573:

B1: ZBED3 (parent)
chain: QARLRDVSRREGALGWAPAAPPPL
B2: PDZK1 (parent)
chain: RETASLKLLPHQPRIVEMKKGSNG

Variants of: B1
Assay: protein stability index of a GFP-peptide fusion (GPS, HEK-293T) (PSI 1-6); higher = more stable
Conditions: c terminus: a fixed tail appended
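Note: lentivirally expressed fusions sorted by FACS into six bins by GFP to DsRed ratio, PSI derived from sequencing read proportions per bin multiplied by bin number.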

| Variant | protein stability index |
| --- | --- |
| QARLRDVSRREGALGWAPAAPNPL [P22N] | 3.26 |
| QARLRDVSRREGALGWAPAAPEPL [P22E] | 4.2 |
| QARLRDVSRREGALGWAPAAPQPL [P22Q] | 3.29 |
| QARLRDVSRREGALGWAPAAPRPL [P22R] | 3.31 |
| QARLRDVSRREGALGWAPAAPDPL [P22D] | 3.81 |
| QARLRDVSRREGALGWAPAAPGPL [P22G] | 3.34 |
| QARLRDVSRREGALGWAPAAPYPL [P22Y] | 2.37 |
| QARLRDVSRREGALGWAPAAPKPL [P22K] | 3.62 |
| QARLRDVSRREGALGWAPAAPCPL [P22C] | 2.29 |
| QARLRDVSRREGALGWAPAAPIPL [P22I] | 2.74 |
| QARLRDVSRREGALGWAPAAPSPL [P22S] | 3.2 |
| QARLRDVSRREGALGWAPAAPAPL [P22A] | 3.65 |
| QARLRDVSRREGALGWAPAAPWPL [P22W] | 2.62 |
| QARLRDVSRREGALGWAPAAPMPL [P22M] | 3.16 |
| QARLRDVSRREGALGWAPAAPVPL [P22V] | 2.46 |
| QARLRDVSRREGALGWAPAAPTPL [P22T] | 3.11 |
| QARLRDVSRREGALGWAPAAPFPL [P22F] | 2.89 |
| QARLRDVSRREGALGWAPAAPHPL [P22H] | 3.45 |
| QARLRDVSRREGALGWAPAAPLPL [P22L] | 3.46 |
| QARLRDVSRREGALGWAPAAIPPL [P21I] | 2.84 |
| QARLRDVSRREGALGWAPAANPPL [P21N] | 2.84 |
| QARLRDVSRREGALGWAPAASPPL [P21S] | 3.5 |
| QARLRDVSRREGALGWAPAAGPPL [P21G] | 3.02 |
| QARLRDVSRREGALGWAPAAKPPL [P21K] | 3.55 |
| QARLRDVSRREGALGWAPAAAPPL [P21A] | 3.1 |
| QARLRDVSRREGALGWAPAAQPPL [P21Q] | 3.22 |
| QARLRDVSRREGALGWAPAADPPL [P21D] | 3.96 |

| Variant | protein stability index |
| --- | --- |
| QARLRDVSRREGALGWAPAAWPPL [P21W] | 2.12 |
| QARLRDVSRREGALGWAPAAVPPL [P21V] | 3.27 |
| QARLRDVSRREGALGWAPAAMPPL [P21M] | 3.2 |
| QARLRDVSRREGALGWAPAAFPPL [P21F] | 2.48 |
| QARLRDVSRREGALGWAPAARPPL [P21R] | 3.49 |
| QARLRDVSRREGALGWAPAACPPL [P21C] | 2.31 |
| QARLRDVSRREGALGWAPAAEPPL [P21E] | 3.87 |
| QARLRDVSRREGALGWAPAWPPPL [A20W] | 1.96 |
| QARLRDVSRREGALGWAEAAPPPL [P18E] | 3.56 |
| QARLRDVSRREGALGWAPAAPPQL [P23Q] | 3.5 |
| QARLRDVSRREGALGWAPAAPPLL [P23L] | 2.9 |
| QARLRDVSRREGALGWAPAAPPRL [P23R] | 3.33 |
| QARLRDVSRREGALGWAPAAPPEL [P23E] | 3.12 |
| QARLRDVSRREGALGWAPAAPPDL [P23D] | 3.81 |
| QARLRDVSRREGALGWAPAAPPGL [P23G] | 3.73 |
| QARLRDVSRREGALGWAPAAPPFL [P23F] | 2.79 |
| QARLRDVSRREGALGWAPAAPPAL [P23A] | 3.38 |
| QARLRDVSRREGALGWAPAAPPIL [P23I] | 2.36 |
| QARLRDVSRREGALGWAPAAPPYL [P23Y] | 2.06 |
| QARLRDVSRREGALGWAPAAPPWL [P23W] | 2.08 |
| QARLRDVSRREGALGWAPAAPPKL [P23K] | 3.33 |
| QARLRDVSRREGALGWAPAAPPSL [P23S] | 3.63 |
| QARLRDVSRREGALGWAPAAPPML [P23M] | 2.86 |
| QARLRDVSRREGALGWAPAAPPVL [P23V] | 2.79 |
| QARLRDVSRREGALGWAPAAPPNL [P23N] | 3.18 |
| QARLRDVSRREGALGWAPAAPPCL [P23C] | 3.19 |

Variants of: B2
Assay: as above
Conditions: c terminus: a fixed tail appended

| Variant | protein stability index |
| --- | --- |
| RETASLKLLPHQPRIVEMKKGSVG [N23V] | 3.72 |
| RETASLKLLPHQPRIVEMKKGSTG [N23T] | 3.52 |
| RETASLKLLPHQPRIVEMKKGSMG [N23M] | 3.24 |
| RETASLKLLPHQPRIVEMKKGSIG [N23I] | 3.24 |
| RETASLKLLPHQPRIVEMKKGSEG [N23E] | 4.45 |
| RETASLKLLPHQPRIVEMKKGSWG [N23W] | 3.12 |
| RETASLKLLPHQPRIVEMKKGSDG [N23D] | 4.24 |
| RETASLKLLPHQPRIVEMKKGSGG [N23G] | 3.62 |
| RETASLKLLPHQPRIVEMKKGSAG [N23A] | 3.62 |
| RETASLKLLPHQPRIVEMKKGSQG [N23Q] | 4.32 |
| RETASLKLLPHQPRIVEMKKGSCG [N23C] | 3.25 |
| RETASLKLLPHQPRIVEMKKGSKG [N23K] | 4.18 |
| RETASLKLLPHQPRIVEMKKGSLG [N23L] | 3.11 |
| RETASLKLLPHQPRIVEMKKGSPG [N23P] | 4.22 |
| RETASLKLLPHQPRIVEMKKGSYG [N23Y] | 3.3 |
| RETASLKLLPHQPRIVEMKKGSSG [N23S] | 3.14 |
| RETASLKLLPHQPRIVEMKKGSRG [N23R] | 4.48 |
| RETASLKLLPHQPRIVEMKKGQNG [S22Q] | 3.88 |
| RETASLKLLPHQPRIVEMKKGNNG [S22N] | 4.09 |
| RETASLKLLPHQPRIVEMKKGPNG [S22P] | 3.33 |
| RETASLKLLPHQPRIVEMKKGTNG [S22T] | 3.51 |

| Variant | protein stability index |
| --- | --- |
| RETASLKLLPHQPRIVEMKKGVNG [S22V] | 4 |
| RETASLKLLPHQPRIVEMKKGYNG [S22Y] | 2.61 |
| RETASLKLLPHQPRIVEMKKGSNS [G24S] | 3.99 |
| RETASLKLLPHQPRIVEMKKGSNL [G24L] | 3.53 |
| RETASLKLLPHQPRIVEMKKGSNY [G24Y] | 3.56 |
| RETASLKLLPHQPRIVEMKKGSNP [G24P] | 4.01 |
| RETASLKLLPHQPRIVEMKKGSNH [G24H] | 4.17 |
| RETASLKLLPHQPRIVEMKKGSND [G24D] | 5 |
| RETASLKLLPHQPRIVEMKKGSNE [G24E] | 4.82 |
| RETASLKLLPHQPRIVEMKKGSNQ [G24Q] | 4.58 |
| RETASLKLLPHQPRIVEMKKGSNA [G24A] | 4.52 |
| RETASLKLLPHQPRIVEMKKGSNM [G24M] | 4.17 |
| RETASLKLLPHQPRIVEMKKGSNF [G24F] | 3.05 |
| RETASLKLLPHQPRIVEMKKGSNR [G24R] | 4.03 |
| RETASLKLLPHQPRIVEMKKGSNK [G24K] | 4.76 |
| RETASLKLLPHQPRIVEMKKGSNC [G24C] | 4.01 |
| RETASLKLLPHQPRIVEMKKGSNT [G24T] | 4.41 |
| RETASLKLLPHQPRIVEMKKGSNV [G24V] | 4.15 |
| RETASLKLLPHQPRIVEMKKGSNN [G24N] | 4.49 |
| RETASLKLLPHQPRIVEMKKGSNW [G24W] | 3.88 |
